According to article PMC2391292:

Target: human CD81 tetraspanin membrane receptor, CD81-GlyGly-rho-1D4 (human) (UniProt P60033)
Assay: ELISA; plates coated with 100 ng rho-1D4 antibody; 100 ng purified CD81 captured by its C-terminal tag; HCV-E2 added at 0.4 to 20 nM for 2 h at room temperature in 25 mM Tris-HCl pH 7.5, 144 mM NaCl, 0.05% DM; detected with goat anti-E2 polyclonal antibody; nonspecific binding (no rho-1D4) subtracted; non-linear regression

Sequence of UniProt P60033 (P60033 whole entry): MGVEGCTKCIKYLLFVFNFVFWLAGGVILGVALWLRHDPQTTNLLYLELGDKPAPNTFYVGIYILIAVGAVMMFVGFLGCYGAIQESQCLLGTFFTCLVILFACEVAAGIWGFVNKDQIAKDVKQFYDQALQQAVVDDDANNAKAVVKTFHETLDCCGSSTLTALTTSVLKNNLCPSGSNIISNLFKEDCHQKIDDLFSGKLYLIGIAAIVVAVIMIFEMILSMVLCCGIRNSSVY

Substance: Recombinant HCV E2 envelope protein (from UniProt P27958 384-746) (ligand)
- Kd: 3.8 nM
